The values that follow come from patent publication US20170073382.

The target of the data set is synthetic TAL effector (RVG-LAMP-2B-NLS-TALE) (Artificial Sequence) (UniProt P14727). The data set can be described thus: cell_activity.

Regarding “gfaABC1D-NeuroD1 plasmid without TAL effector binding site”, the binding signal turned out to be 1 fold.
